± gives the uncertainty stated by the source.
Test: self-splicing fitness, log relative to wild type (ln ratio); higher = more splicing; Tetrahymena group I intron in knt gene, E. coli kanamycin selection, DiMSum; sequences stand for … in CUCUCU…GGAGGGAAAAGUUAUCAGGCAUGCACCUGGUAGCUAGUCUUUAAACCAAUAGAUUGCAUCGGUUUAAAAGGCAAGACCGUCAAAUUGCGGGAAAGGGGUCAACAGCCGUUCAGUACCAAGUCUCAGGGGAAACUUUGAGAUGGCCUUGCAAAGGGUAUGGUAAUAAGCUGACGGACAUGGUCCUAACCACGCAGCCAAGUCCUAAGUCAACAGAUCUUCUGUUGAUAUGGAUGCAGUUCACAGACUAAAUGUCGGUCGGGGAAGAUGUAUUCUUCUCAUAAGAUAUAGUCGGACCUCUCCUUAAUGGGAGCUAGCGGAUGAAGUGAUGCAACACUGGAGCCGCUGGGAACUAAUUUGUAUGCGAAAGUAUAUUGAUUAGUUUUGGAGUACUCGUGGUCG
Procedure, shortened: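 Six replicate transformations of E. coli BL21(DE3) with a pET-22b(+) library were grown overnight at 37°C or 30°C. The library randomised all eight P1ex-region intron nucleotides, the intron lying in the knt kanamycin-resistance gene, and plates were LB agar with or without 25 μg/mL kanamycin plus 100 μg/mL carbenicillin, 50 μM IPTG and 0.2% rhamnose. Pooled colonies were amplicon-sequenced on an Illumina HiSeq 2500, and fitness is the DiMSum error-weighted combination of wild-type-normalised replicate fold changes, kanamycin versus none.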

Sequence | self-splicing fitness (ln) (30 °C) | self-splicing fitness (ln) (37 °C)
ACAAAGCAAUAUUACGGUAG | -3.48 ± 0.16 | -3.21 ± 0.24
ACAAAGCAAUAUUACGGUCA | -0.595 ± 0.069 | -0.472 ± 0.07
ACAAAGCAAUAUUACGUAAA | -2.08 ± 0.069 | -0.302 ± 0.092
ACAAAGCAAUAUUACGUAGC | -2.35 ± 0.086 | -2.01 ± 0.12
ACAAAGCAAUAUUACGUCAU | -3.08 ± 0.12 | -2.4 ± 0.14
ACAAAGCAAUAUUACGUCUU | -0.827 ± 0.051 | -0.41 ± 0.064
ACAAAGCAAUAUUACGUGUA | -2.6 ± 0.1 | -1.56 ± 0.084
ACAAAGCAAUAUUACGUUCC | -2.06 ± 0.11 | -1.73 ± 0.15
ACACAGCAAUAUUACGAAUG | -2.63 ± 0.1 | -1.08 ± 0.084
ACACAGCAAUAUUACGACAU | -0.676 ± 0.01 | -0.0836 ± 0.031
ACACAGCAAUAUUACGAGUC | -5.36 ± 0.27 | -3.05 ± 0.19
ACACAGCAAUAUUACGCACU | -0.282 ± 0.045 | 0.182 ± 0.058
ACACAGCAAUAUUACGCAUC | -3.23 ± 0.21 | -0.58 ± 0.094
ACACAGCAAUAUUACGCCCC | -1.66 ± 0.14 | -0.901 ± 0.15
ACACAGCAAUAUUACGCCCG | -0.876 ± 0.092 | -0.533 ± 0.12
ACACAGCAAUAUUACGCGAC | -2.72 ± 0.098 | -2.15 ± 0.11
ACACAGCAAUAUUACGCGGC | -2.29 ± 0.12 | -2.92 ± 0.16
ACACAGCAAUAUUACGCGGU | -4.42 ± 0.23 | -2.89 ± 0.17
ACACAGCAAUAUUACGCUCG | -0.365 ± 0.064 | 0.194 ± 0.085
ACACAGCAAUAUUACGGAAG | -3.07 ± 0.14 | -1.12 ± 0.11
ACACAGCAAUAUUACGGACG | -0.635 ± 0.057 | 0.0496 ± 0.073
ACACAGCAAUAUUACGGAUA | -2.87 ± 0.15 | -2.54 ± 0.15
ACACAGCAAUAUUACGGCCU | -0.094 ± 0.086 | -0.0787 ± 0.12
ACACAGCAAUAUUACGGGAC | -3.3 ± 0.14 | -2.12 ± 0.14
ACACAGCAAUAUUACGGGGC | -2.8 ± 0.16 | -3.16 ± 0.19

Sequence | self-splicing fitness (ln) (30 °C) | self-splicing fitness (ln) (37 °C)
ACACAGCAAUAUUACGGUAA | -3.67 ± 0.21 | -1.18 ± 0.1
ACACAGCAAUAUUACGUCAG | -3.58 ± 0.14 | -1.67 ± 0.12
ACACAGCAAUAUUACGUGCG | -0.45 ± 0.044 | -0.606 ± 0.063
ACACAGCAAUAUUACGUUCC | -2.17 ± 0.088 | -1.29 ± 0.1
ACACAGCAAUAUUACGUUUA | -2.9 ± 0.11 | -1.99 ± 0.088
ACAGAGCAAUAUUACGAAAC | -2.71 ± 0.29 | 
ACAGAGCAAUAUUACGAGCG | -3.08 ± 0.14 | -2.51 ± 0.19
ACAGAGCAAUAUUACGAUAC | -1.87 ± 0.35 | 
ACAGAGCAAUAUUACGAUCA | -3.4 ± 0.28 | 
ACAGAGCAAUAUUACGAUGA | -1.49 ± 0.17 | -1.15 ± 0.16
ACAGAGCAAUAUUACGCGCG | -2.69 ± 0.098 | -1.47 ± 0.1
ACAGAGCAAUAUUACGCUGG | -3.47 ± 0.14 | -2.53 ± 0.16
ACAGAGCAAUAUUACGGAAA | -3.38 ± 0.36 | -2.81 ± 0.38
ACAGAGCAAUAUUACGGAGU | -3.05 ± 0.23 | -3.24 ± 0.35
ACAGAGCAAUAUUACGGAUC | -3.24 ± 0.4 | -1.85 ± 0.26
ACAGAGCAAUAUUACGGAUU | -3.67 ± 0.18 | -1.84 ± 0.14
ACAGAGCAAUAUUACGGCAG | -2.25 ± 0.14 | -2.45 ± 0.22
ACAGAGCAAUAUUACGGCCG | -2.2 ± 0.27 | -1.33 ± 0.25
ACAGAGCAAUAUUACGGCGC | -1.6 ± 0.14 | -0.0642 ± 0.18
ACAGAGCAAUAUUACGGUGA | -2.32 ± 0.13 | -2.41 ± 0.21
ACAGAGCAAUAUUACGGUUA | -2.77 ± 0.21 | -3.05 ± 0.33
ACAGAGCAAUAUUACGUAUC | -4.32 ± 0.29 | -1.46 ± 0.14
ACAGAGCAAUAUUACGUCAC | -3.39 ± 0.26 | -2.43 ± 0.41
ACAGAGCAAUAUUACGUCCA | -2.34 ± 0.2 | -2.25 ± 0.26
ACAGAGCAAUAUUACGUGUU | -2.64 ± 0.12 | -2.51 ± 0.18

Sequence | self-splicing fitness (ln) (30 °C) | self-splicing fitness (ln) (37 °C)
ACAGAGCAAUAUUACGUUCG | -2.06 ± 0.11 | -0.493 ± 0.12
ACAGAGCAAUAUUACGUUGC | -2.78 ± 0.18 | 
ACAGAGCAAUAUUACGUUGU | -3.88 ± 0.2 | -2.34 ± 0.18
ACAUAGCAAUAUUACGAAAA | -2.4 ± 0.25 | -3.31 ± 0.3
ACAUAGCAAUAUUACGAAAC | -3.95 ± 0.26 | -2.45 ± 0.33
ACAUAGCAAUAUUACGAAAG | -3.36 ± 0.22 | -2.06 ± 0.23
ACAUAGCAAUAUUACGAAAU | -3.43 ± 0.19 | -2.75 ± 0.26
ACAUAGCAAUAUUACGAACC | -1.16 ± 0.13 | -1.13 ± 0.2
ACAUAGCAAUAUUACGAACU | -0.612 ± 0.1 | 0.274 ± 0.12
ACAUAGCAAUAUUACGACAC | -1.62 ± 0.15 | -1.29 ± 0.21
ACAUAGCAAUAUUACGACAU | -0.718 ± 0.011 | -0.22 ± 0.032
ACAUAGCAAUAUUACGAGCC | -3.94 ± 0.36 | -2.42 ± 0.28
ACAUAGCAAUAUUACGCCAC | -3.57 ± 0.27 | -0.959 ± 0.17
ACAUAGCAAUAUUACGCCGC |  | -2.65 ± 0.4
ACAUAGCAAUAUUACGCCUC |  | -1.29 ± 0.24
ACAUAGCAAUAUUACGGACU | -0.288 ± 0.057 | 0.36 ± 0.074
ACAUAGCAAUAUUACGGAGU | -3.73 ± 0.12 | -2.55 ± 0.13
ACAUAGCAAUAUUACGGAUU | -3.42 ± 0.13 | -1.68 ± 0.12
ACAUAGCAAUAUUACGGCAA | -0.85 ± 0.09 | -0.569 ± 0.084
ACAUAGCAAUAUUACGGCAC | -1.56 ± 0.11 | -1.2 ± 0.15
ACAUAGCAAUAUUACGGCCU | -0.828 ± 0.074 | 0.129 ± 0.1
ACAUAGCAAUAUUACGGCGU | -0.355 ± 0.07 | 0.246 ± 0.081
ACAUAGCAAUAUUACGGUAU | -3.6 ± 0.11 | -1.77 ± 0.11
ACAUAGCAAUAUUACGGUGU | -3.8 ± 0.21 | -3.54 ± 0.3
ACAUAGCAAUAUUACGUAAC | -3.65 ± 0.23 | -3.2 ± 0.35

Sequence | self-splicing fitness (ln) (30 °C) | self-splicing fitness (ln) (37 °C)
ACAUAGCAAUAUUACGUAAU | -2.87 ± 0.11 | -1.93 ± 0.14
ACAUAGCAAUAUUACGUACG | -2.39 ± 0.12 | -1.87 ± 0.16
ACAUAGCAAUAUUACGUAGA | -3.71 ± 0.15 | -1.62 ± 0.12
ACAUAGCAAUAUUACGUAUG | -2.67 ± 0.12 | -1.73 ± 0.12
ACAUAGCAAUAUUACGUCUA | -2.05 ± 0.096 | -1.1 ± 0.083
ACAUAGCAAUAUUACGUUCU | -1.19 ± 0.11 | -0.553 ± 0.12
ACCAAGCAAUAUUACGAAAA | -3.44 ± 0.2 | -2.91 ± 0.23
ACCAAGCAAUAUUACGAACC | -1.62 ± 0.1 | -0.978 ± 0.12
ACCAAGCAAUAUUACGACCG | -1.17 ± 0.096 | -0.119 ± 0.12
ACCAAGCAAUAUUACGACGC | -0.493 ± 0.074 | 0.0307 ± 0.098
ACCAAGCAAUAUUACGACUU | -3.83 ± 0.19 | -1.85 ± 0.12
ACCAAGCAAUAUUACGAUAC | -2.83 ± 0.32 | -1.99 ± 0.3
ACCAAGCAAUAUUACGAUCG | -1.43 ± 0.067 | -0.395 ± 0.093
ACCAAGCAAUAUUACGCCAU | -0.983 ± 0.12 | -1.56 ± 0.16
ACCAAGCAAUAUUACGCCCC | -1.37 ± 0.35 | 0.27 ± 0.24
ACCAAGCAAUAUUACGCCGC | -3.04 ± 0.24 | -0.837 ± 0.18
ACCAAGCAAUAUUACGCCUA | -1.04 ± 0.11 | -0.201 ± 0.11
ACCAAGCAAUAUUACGGACG | -1.09 ± 0.069 | -0.0232 ± 0.083
ACCAAGCAAUAUUACGGAGC | -3.33 ± 0.23 | -3.2 ± 0.33
ACCAAGCAAUAUUACGGCAC | -0.797 ± 0.091 | -0.913 ± 0.11
ACCAAGCAAUAUUACGGCGU | -1 ± 0.05 | 0.0505 ± 0.064
ACCAAGCAAUAUUACGGGCU | -1.12 ± 0.058 | -1.16 ± 0.083

Source: the supplement of paper PMC7877785
